According to publication PMC10578477, “Biochemical and genetic dissection of the RNA-binding surface of the FinO domain of Escherichia coli ProQ”:
Changes are numbered by the printed parent chain.

T1: ProQ NTD R69A R69A (Escherichia coli) (UniProt P45577)
T1 sequence: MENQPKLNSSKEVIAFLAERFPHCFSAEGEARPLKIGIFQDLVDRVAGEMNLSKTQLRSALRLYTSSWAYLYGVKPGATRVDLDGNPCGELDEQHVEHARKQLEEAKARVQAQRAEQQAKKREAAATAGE

T2: ProQ NTD R58A R58A (Escherichia coli) (UniProt P45577)
T2 sequence: T1 sequence with R58A, A69R

T3: ProQ NTD T65A T65A (Escherichia coli) (UniProt P45577)
T3 sequence: T1 sequence with T65A, A69R

T4: ProQ NTD D41A D41A (Escherichia coli) (UniProt P45577)
T4 sequence: T1 sequence with D41A, A69R

T5: ProQ NTD K54A K54A (Escherichia coli) (UniProt P45577)
T5 sequence: T1 sequence with K54A, A69R

T6: ProQ NTD R62A R62A (Escherichia coli) (UniProt P45577)
T6 sequence: T1 sequence with R62A, A69R

T7: ProQ NTD R32A R32A (Escherichia coli) (UniProt P45577)
T7 sequence: T1 sequence with R32A, A69R

T8: ProQ NTD K35A K35A (Escherichia coli) (UniProt P45577)
T8 sequence: T1 sequence with K35A, A69R

T9: ProQ NTD Y70F Y70F (Escherichia coli) (UniProt P45577)
T9 sequence: T1 sequence with A69R, Y70F

T10: ProQ NTD R69A (Escherichia coli, UniProt P45577 1-130, R69A)
T10 sequence: T1 sequence

T11: ProQ NTD R62A (Escherichia coli, UniProt P45577 1-130, R62A)
T11 sequence: T1 sequence with R62A, A69R

T12: ProQ NTD K35A (Escherichia coli, UniProt P45577 1-130, K35A)
T12 sequence: T1 sequence with K35A, A69R

T13: ProQ NTD R80K (Escherichia coli, UniProt P45577 1-130, R80K)
T13 sequence: T1 sequence with A69R, R80K

T14: ProQ NTD R80A (Escherichia coli, UniProt P45577 1-130, R80A)
T14 sequence: T1 sequence with A69R, R80A

T15: ProQ NTD T65A (Escherichia coli, UniProt P45577 1-130, T65A)
T15 sequence: T1 sequence with T65A, A69R

T16: ProQ NTD D41A (Escherichia coli, UniProt P45577 1-130, D41A)
T16 sequence: T1 sequence with D41A, A69R

B1: cspE-3' (structured_RNA)
RNA: GUAAGAUACGUCAGCAAGAAUUCAAAACCCGCUUAAUCAGCGGGUUUUUUUU

Legend:
[1] = target: T1, ProQ NTD R69A R69A (Escherichia coli); assay: EMSA; settings: EMSA: 25 mM Tris pH 7.5, 150 mM NaCl, 5% glycerol, 1 mM MgCl2, 1 nM 32P-RNA, 30 min RT; microplates pretreated with 0.0025% BSA; 6% gel in 0.5x TBE at 4 C
[2] = target: T2, ProQ NTD R58A R58A (Escherichia coli); assay: EMSA; settings: EMSA: 25 mM Tris pH 7.5, 150 mM NaCl, 5% glycerol, 1 mM MgCl2, 1 nM 32P-RNA, 30 min RT; microplates pretreated with 0.0025% BSA; 6% gel in 0.5x TBE at 4 C
[3] = target: T3, ProQ NTD T65A T65A (Escherichia coli); assay: EMSA; settings: EMSA: 25 mM Tris pH 7.5, 150 mM NaCl, 5% glycerol, 1 mM MgCl2, 1 nM 32P-RNA, 30 min RT; microplates pretreated with 0.0025% BSA; 6% gel in 0.5x TBE at 4 C
[4] = target: T4, ProQ NTD D41A D41A (Escherichia coli); assay: EMSA; settings: EMSA: 25 mM Tris pH 7.5, 150 mM NaCl, 5% glycerol, 1 mM MgCl2, 1 nM 32P-RNA, 30 min RT; microplates pretreated with 0.0025% BSA; 6% gel in 0.5x TBE at 4 C
[5] = target: T5, ProQ NTD K54A K54A (Escherichia coli); assay: EMSA; settings: EMSA: 25 mM Tris pH 7.5, 150 mM NaCl, 5% glycerol, 1 mM MgCl2, 1 nM 32P-RNA, 30 min RT; microplates pretreated with 0.0025% BSA; 6% gel in 0.5x TBE at 4 C
[6] = target: T6, ProQ NTD R62A R62A (Escherichia coli); assay: EMSA; settings: EMSA: 25 mM Tris pH 7.5, 150 mM NaCl, 5% glycerol, 1 mM MgCl2, 1 nM 32P-RNA, 30 min RT; microplates pretreated with 0.0025% BSA; 6% gel in 0.5x TBE at 4 C
[7] = target: T7, ProQ NTD R32A R32A (Escherichia coli); assay: EMSA; settings: EMSA: 25 mM Tris pH 7.5, 150 mM NaCl, 5% glycerol, 1 mM MgCl2, 1 nM 32P-RNA, 30 min RT; microplates pretreated with 0.0025% BSA; 6% gel in 0.5x TBE at 4 C
[8] = target: T8, ProQ NTD K35A K35A (Escherichia coli); assay: EMSA; settings: EMSA: 25 mM Tris pH 7.5, 150 mM NaCl, 5% glycerol, 1 mM MgCl2, 1 nM 32P-RNA, 30 min RT; microplates pretreated with 0.0025% BSA; 6% gel in 0.5x TBE at 4 C
[9] = target: T9, ProQ NTD Y70F Y70F (Escherichia coli); assay: EMSA; settings: EMSA: 25 mM Tris pH 7.5, 150 mM NaCl, 5% glycerol, 1 mM MgCl2, 1 nM 32P-RNA, 30 min RT; microplates pretreated with 0.0025% BSA; 6% gel in 0.5x TBE at 4 C
[10] = target: T10, ProQ NTD R69A; assay: EMSA; max fraction bound 88%; EMSA: 25 mM Tris pH 7.5, 150 mM NaCl, 5% glycerol, 1 mM MgCl2, 1 nM 32P-RNA, 30 min RT; microplates pretreated with 0.0025% BSA; 6% gel in 0.5x TBE at 4 C; settings: protein: recombinant; tags: His6-TEV removed, N-terminal Ser remains; label: 5'-32P; terminator hairpin, 8 U 3' tail
[11] = target: T11, ProQ NTD R62A; assay: EMSA; max fraction bound just above 40%; EMSA: 25 mM Tris pH 7.5, 150 mM NaCl, 5% glycerol, 1 mM MgCl2, 1 nM 32P-RNA, 30 min RT; microplates pretreated with 0.0025% BSA; 6% gel in 0.5x TBE at 4 C; settings: protein: recombinant; tags: His6-TEV removed, N-terminal Ser remains; label: 5'-32P; terminator hairpin, 8 U 3' tail
[12] = target: T12, ProQ NTD K35A; assay: EMSA; max fraction bound similar to WT; EMSA: 25 mM Tris pH 7.5, 150 mM NaCl, 5% glycerol, 1 mM MgCl2, 1 nM 32P-RNA, 30 min RT; microplates pretreated with 0.0025% BSA; 6% gel in 0.5x TBE at 4 C; settings: protein: recombinant; tags: His6-TEV removed, N-terminal Ser remains; label: 5'-32P; terminator hairpin, 8 U 3' tail
[13] = target: T13, ProQ NTD R80K; assay: EMSA; EMSA: 25 mM Tris pH 7.5, 150 mM NaCl, 5% glycerol, 1 mM MgCl2, 1 nM 32P-RNA, 30 min RT; microplates pretreated with 0.0025% BSA; 6% gel in 0.5x TBE at 4 C; settings: protein: recombinant; tags: His6-TEV removed, N-terminal Ser remains; label: 5'-32P; terminator hairpin, 8 U 3' tail
[14] = target: T14, ProQ NTD R80A; assay: as above; settings: protein: recombinant; tags: His6-TEV removed, N-terminal Ser remains; label: 5'-32P; terminator hairpin, 8 U 3' tail
[15] = target: T15, ProQ NTD T65A; assay: as above; settings: protein: recombinant; tags: His6-TEV removed, N-terminal Ser remains; label: 5'-32P; terminator hairpin, 8 U 3' tail
[16] = target: T16, ProQ NTD D41A; assay: as above; settings: protein: recombinant; tags: His6-TEV removed, N-terminal Ser remains; label: 5'-32P; terminator hairpin, 8 U 3' tail
[17] = target: T10, ProQ NTD R69A; assay: EMSA; affinity not decreased vs R69A with cspE-3'; EMSA: 25 mM Tris pH 7.5, 150 mM NaCl, 5% glycerol, 1 mM MgCl2, 1 nM 32P-RNA, 30 min RT; microplates pretreated with 0.0025% BSA; 6% gel in 0.5x TBE at 4 C; settings: protein: recombinant; tags: His6-TEV removed, N-terminal Ser remains; label: 5'-32P; hairpin with 5' and 3' single-stranded regions
[18] = target: T12, ProQ NTD K35A; assay: EMSA; EMSA: 25 mM Tris pH 7.5, 150 mM NaCl, 5% glycerol, 1 mM MgCl2, 1 nM 32P-RNA, 30 min RT; microplates pretreated with 0.0025% BSA; 6% gel in 0.5x TBE at 4 C; settings: protein: recombinant, tags: His6-TEV removed, N-terminal Ser remains, label: 5'-32P
[19] = target: T10, ProQ NTD R69A; assay: as above; settings: protein: recombinant; tags: His6-TEV removed, N-terminal Ser remains; label: 5'-32P; hairpin, 6 U tail (2 predicted single-stranded)
[20] = target: T10, ProQ NTD R69A; assay: as above; settings: protein: recombinant; tags: His6-TEV removed, N-terminal Ser remains; label: 5'-32P; hairpin, no 5' single strand
[21] = target: T12, ProQ NTD K35A; assay: as above; settings: protein: recombinant; tags: His6-TEV removed, N-terminal Ser remains; label: 5'-32P; hairpin, no 5' single strand

Molecule | Kd [2] [nM] | binding signal (fold weaker Kd than WT) [3] | binding signal (fold weaker Kd than WT) [4] | binding signal [5] [% max bound] | binding signal [6] [% max bound] | other results
RybB | > 1000 | 1 | 2 | < 20 |  | binding signal [1]: < 40 % max bound
SibA | > 1000 | 2 | > 5 |  | 25 | 
SibB | > 1000 | 4 | > 5 |  |  | binding signal (fold weaker Kd than WT) [7]: 3; Kd [8]: > 1000 nM
SibB-5U |  |  |  |  |  | binding signal [1]: > 30 % max bound
cspE81-3' | > 1000 | 2 | 2 | 30 | < 20 | binding signal [9]: < 20 % max bound
gapA-3' | > 1000 | 1 | 1 | < 20 | < 20 | binding signal (fold weaker Kd than WT) [7]: 1
malM-3' | > 1000 | 2 | 3 | 30 | 25 | binding signal (fold weaker Kd than WT) [7]: 1; binding signal [9]: < 20 % max bound; binding signal [8]: 70 % max bound
B1 |  |  |  |  |  | Kd [10]: 20 nM; binding signal [11]: ~4 fold weaker Kd than WT; binding result [12]: binds; binding result [13]: no binding; binding result [14]: no binding; binding signal [15]: ~4 fold weaker Kd than WT; binding signal [16]: ~3 fold weaker Kd than WT
GGAAUUCGGAAGGCGCUUAAUCAGCGCCUUUUUUUU (structured_RNA) [cspE-mini] |  |  |  |  |  | binding result [17]: binds; binding signal ([18]; hairpin with 5' and 3' single-stranded regions): ~2 fold weaker Kd than K35A with cspE-3'
GGAAUUCGGAAGGCGCUUAAUCAGCGCCUUUUUU (structured_RNA) [cspE-mini-3'-6U] |  |  |  |  |  | binding signal [19]: ~2.4 fold weaker Kd than R69A with cspE-mini; binding signal ([18]; hairpin, 6 U tail (2 predicted single-stranded)): ~1.4 fold weaker Kd than K35A with cspE-mini
GGAAGGCGCUUAAUCAGCGCCUUUUUUUU (structured_RNA) [cspE-mini-5'-blunt] |  |  |  |  |  | binding result [20]: no binding; binding result [21]: no binding
